Patent publication US20210324028A1 (Pfizer, published 2021)
Substitutions are numbered along the chain they refer to. In names and notes the source's numbering stands. One block for each binder: values may come before it.

What was measured:
human IL-2Rβ [1] = molecular target: T1, human IL-2Rβ (human, UniProt P14784 27-240, limits assumed); test: SPR, kinetic fit
T1 construct: also called hIL-2Rβ; IL-2 receptor beta
T1 sequence (looked up): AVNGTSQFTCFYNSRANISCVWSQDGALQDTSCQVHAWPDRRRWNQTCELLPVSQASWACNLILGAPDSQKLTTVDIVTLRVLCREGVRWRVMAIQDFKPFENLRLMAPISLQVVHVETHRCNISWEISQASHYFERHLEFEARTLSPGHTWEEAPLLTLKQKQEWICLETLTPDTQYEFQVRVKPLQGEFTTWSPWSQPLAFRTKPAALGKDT

human IL-15Rα [2] = molecular target: T2, human IL-15Rα (human, UniProt Q13261 31-205, limits assumed); test: SPR 37C
T2 construct: also called hIL-15Rα; IL-15 receptor alpha

human IL-2Rβ [3] = molecular target: T1, human IL-2Rβ; test: SPR 37C
human IL-15Rα [4] = molecular target: T2, human IL-15Rα; test: SPR, steady state
human IL-2Rβ [5] = molecular target: T1, human IL-2Rβ; test: SPR, steady state
human IL-2Rβ [6] = molecular target: T1, human IL-2Rβ; test: SPR, steady state, fusion captured
Method: (§1) Anti-human Fc sensor chips were prepared at 25° C. with a running buffer of 10 mM HEPES, 150 mM NaCl, 0.05% (v/v) Tween-20, pH 7.4. All surfaces of a Biacore CM4 sensor chip were activated with a 1:1 (v/v) mixture of 400 mM EDC and 100 mM NHS for 7 minutes, at a flow rate of 10 μL/min. An anti-human Fc reagent (Goat anti-human IgG Fc-γ specific, SouthernBiotech, Birmingham, Ala., Catalog #2014-01) was diluted to 50 μg/mL in 10 mM sodium acetate (pH 4.5) and injected on all flow cells for 7 minutes at 20 μL/min. All flow cells were blocked with 100 mM ethylenediamine in 200 mM Borate buffer pH 8.5 for 7 minutes at 10 μL/min.
(§2) All protein interaction experiments were performed at 37° C. using a running buffer of 10 mM HEPES, 150 mM NaCl, 0.05% (v/v) Tween-20, pH 7.4, 1 mg/mL BSA. Anti-PD-1-hIL-15 fusion proteins were captured at 10 μg/mL at a flow rate of 10 μL/min for 2 minutes. Different fusion proteins were captured in flow cells 2, 3 and 4. No protein was captured onto flow cell 1 which was used as a reference surface. […] After each analyte injection, dissociation was monitored for 5 minutes followed by regeneration of all flow cells with three 60-second injections of 75 mM phosphoric acid. […] For kinetic analysis, the double-referenced sensorgrams were fit globally to a simple 1:1 Langmuir with mass transport binding model using Biacore T200 Evaluation Software version 2.0. For steady-state affinity analysis, the double-referenced equilibrium binding responses were fit with a 1:1 Langmuir steady-state model using Biacore T200 Evaluation Software version 2.0.

human IL-15Rα [7] = molecular target: T2, human IL-15Rα; test: SPR 37C, fusion captured by anti-human Fc
Method: as §1, §2

human IL-2Rβ [8] = molecular target: T1, human IL-2Rβ; test: SPR, fusion captured
Method: as §1, §2

T2 sequence (Q13261 31-205 limits assumed): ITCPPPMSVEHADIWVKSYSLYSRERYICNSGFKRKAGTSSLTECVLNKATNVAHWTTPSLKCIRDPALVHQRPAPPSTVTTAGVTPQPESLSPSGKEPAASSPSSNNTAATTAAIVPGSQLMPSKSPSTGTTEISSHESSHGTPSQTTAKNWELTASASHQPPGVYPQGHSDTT

binding result (human IL-15Rα [2]): no binding | binding result (human IL-2Rβ [3]): no binding
B6: hIL-15 V49R/L69K (ligand)
chain: NWVNVISDLKKIEDLIQSMHIDATLYTESDVHPSCKVTAMKCFLLELQRISLESGDASIHDTVENLIIKANNSLSSNGNVTESGCKECEELEEKNIKEFLQSFVHIVQMFINTGGGGSGHHHHHHHHGGGLNDIFEAQKIEWHE

binding result (human IL-15Rα [2]): no binding | binding result (human IL-2Rβ [3]): no binding
B8: hIL-15 V49R/I68P (ligand)
chain: B6 chain with I68P, K69L

Kd (human IL-2Rβ [6]): 767 nM | binding result (human IL-15Rα [7]): no binding (tested: 3000 nM)
B11: xmPD-1-hIL15Rasu-hIL15(E64Q/D30N N4K) (other)
heavy 1: HHHHHHHHGGGGSGSGGEVQLVESGGGLVKPGGSLELSCAASGFTFSSYWMSWVRQAPEKGLEWVAAISPSGGSTYYADSVKGRFTISRDNAKNTLFLQMTSLRSEDTAMYYCAKESWGAYYDLWGQGTTVTVSSASTKGPSVFPLAPCSRSTSESTAALGCLVKDYFPEPVTVSWNSGALTSGVHTFPAVLQSSGLYSLSSVVTVPSSNFGTQTYTCNVDHKPSNTKVDKTVERKCRVRCPRCPAPPVAGPSVFLFPPKPKDTLMISRTPEVTCVVVAVSHEDPEVQFNWYVDGVEVHNAKTKPREEQFNSTFRVVSVLTVVHQDWLNGKEYKCKVSNKGLPSSIEKTISKTKGQPREPQVYTLPPSREEMTKNQVSLTCLVKGFYPSDIAVEWESNGQPENNYKTTPPMLDSDGSFFLYSRLTVDKSRWQQGNVFSCSVMHEALHNHYTQKSLSLSPGK
heavy 2: EVQLVESGGGLVKPGGSLELSCAASGFTFSSYWMSWVRQAPEKGLEWVAAISPSGGSTYYADSVKGRFTISRDNAKNTLFLQMTSLRSEDTAMYYCAKESWGAYYDLWGQGTTVTVSSASTKGPSVFPLAPCSRSTSESTAALGCLVKDYFPEPVTVSWNSGALTSGVHTFPAVLQSSGLYSLSSVVTVPSSNFGTQTYTCNVDHKPSNTKVDKTVERKCEVECPECPAPPVAGPSVFLFPPKPKDTLMISRTPEVTCVVVAVSHEDPEVQFNWYVDGVEVHNAKTKPREEQFNSTFRVVSVLTVVHQDWLNGKEYKCKVSNKGLPSSIEKTISKTKGQPREPQVYTLPPSREEMTKNQVSLTCEVKGFYPSDIAVEWESNGQPENNYKTTPPMLDSDGSFFLYSKLTVDKSRWQQGNVFSCSVMHEALHNHYTQKSLSLSPGSGGGGGTSATATPGAITCPPPMSVEHADIWVKSYSLYSRERYICNSGFKRKAGTSSLTECVLNKATNVAHWTTPSLKCIRDPALVHQRPAPPSGGSGGGGSGGGSGGGGSGGNWVKVISDLKKIEDLIQSMHIDATLYTESNVHPSCKVTAMKCFLLELQVISLESGDASIHDTVQNLIILANNSLSSNGNVTESGCKECEELEEKNIKEFLQSFVHIVQMFINT
light: DIVMTQSPSSLSVSAGDKVTMSCRASQGISSWLAWYQQKPWQPPKLLIYKASTLESGVPDRFTGSGSGTDFTLTISSVQAEDLAVYYCQQSYSTPWTFGGGTKLEIKGTVAAPSVFIFPPSDEQLKSGTASVVCLLNNFYPREAKVQWKVDNALQSGNSQESVTEQDSKDSTYSLSSTLTLSKADYEKHKVYACEVTHQGLSSPVTKSFNRGEC
notes: not restated for this mutant

Kd (human IL-2Rβ [6]): 315 nM | binding result (human IL-15Rα [7]): no binding (tested: 3000 nM)
B12: xmPD-1-hIL15Rasu-hIL15(E64Q/D30N/M109A) (other)
heavy 1: B11 heavy 1
heavy 2: B11 heavy 2 with K559N, M664A
light: B11 light
notes: not restated for this mutant

Kd (human IL-2Rβ [8]): > 3000 nM | binding result (human IL-15Rα [7]): no binding (tested: 3000 nM)
B13: xmPD-1-hIL15Rasu-hIL15(E64Q/D30N/N4K/M109A) (other)
heavy 1: B11 heavy 1
heavy 2: B11 heavy 2 with M664A
light: B11 light
notes: not restated for this mutant

Kd (human IL-2Rβ [8]): > 1500 nM | binding result (human IL-15Rα [7]): no binding (tested: 3000 nM)
B14: xmPD-1-hIL15Rasu-hIL15(E64Q/D30N/I68S/M109A) (other)
heavy 1: B11 heavy 1
heavy 2: B11 heavy 2 with K559N, I623S, M664A
light: B11 light
notes: not restated for this mutant

Kd (human IL-2Rβ [8]): > 3000 nM | binding result (human IL-15Rα [7]): no binding (tested: 3000 nM)
B15: xmPD-1-hIL15Rasu-hIL15(E64Q/D30N/I68S) (other)
heavy 1: B11 heavy 1
heavy 2: B11 heavy 2 with K559N, I623S
light: B11 light
notes: not restated for this mutant

More lines, now with the values behind:

B1: hIL-15 V49R/D30G (ligand)
chain: B6 chain with D30G, K69L
Kd (human IL-2Rβ [1]): 513 nM

B2: hIL-15 V49R/L69P (ligand)
chain: B6 chain with K69P
binding result (human IL-15Rα [2]): no binding | binding result (human IL-2Rβ [3]): no binding

B3: hIL-15 V49R/K11W (ligand)
chain: B6 chain with K11W, K69L
Kd (human IL-15Rα [4]): 361 nM | Kd (human IL-2Rβ [1]): 346 nM

B4: hIL-15 V49R/D30P (ligand)
chain: B6 chain with D30P, K69L
binding result (human IL-15Rα [2]): no binding

B5: hIL-15 V49R/H32F (ligand)
chain: B6 chain with H32F, K69L
Kd (human IL-2Rβ [1]): 315 nM

B7: hIL-15 V49R/V31K (ligand)
chain: B6 chain with V31K, K69L
Kd (human IL-2Rβ [5]): > 500 nM | binding result (human IL-15Rα [2]): no binding

B9: hIL-15 V49R/N1R (ligand)
chain: B6 chain with N1R, K69L
Kd (human IL-15Rα [4]): 243 nM | Kd (human IL-2Rβ [1]): 479 nM

B10: hIL-15 V49R/N4Y (ligand)
chain: B6 chain with N4Y, K69L
Kd (human IL-2Rβ [1]): 117 nM
